Results: IntAct's records for PubMed 26524528

B1: Lamin-B1 (Homo sapiens), P20700 (parent)
chain: MATATPVPPRMGSRAGGPTTPLSPTRLSRLQEKEELRELNDRLAVYIDKVRSLETENSALQLQVTEREEVRGRELTGLKALYETELADARRALDDTARERAKLQIELGKCKAEHDQLLLNYAKKESDLNGAQIKLREYEAALNSKDAALATALGDKKSLEGDLEDLKDQIAQLEASLAAAKKQLADETLLKVDLENRCQSLTEDLEFRKSMYEEEINETRRKHETRLVEVDSGRQIEYEYKLAQALHEMREQHDAQVRLYKEELEQTYHAKLENARLSSEMNTSTVNSAREELMESRMRIESLSSQLSNLQKESRACLERIQELEDLLAKEKDNSRRMLTDKEREMAEIRDQMQQQLNDYEQLLDVKLALDMEISAYRKLLEGEEERLKLSPSPSSRVTVSRASSSRSVRTTRGKRKRVDVEESEASSSVSISHSASATGNVCIEEIDVDGKFIRLKNTSEQDQPMGGWEMIRKIGDTSVSYKYTSRYVLKAGQTVTIWAANAGVTASPPTDLIWKNQNSWGTGEDVKVILKNSQGEEVAQRSTVFKTTIPEEEEEEEEAAGVVVEEELFHQQGTPRASNRSCAIM

Variants of: B1
Conditions: with mlp3b_human MAP1LC3B

Row | Variant | effect of a mutation on the interaction
1 | MATATPVPPRMGSRAGGPTTPLSPTRLSRLQEKEELRELNDRLAVYIDKVRSLETENSALQLQVTEREEVRGRELTGLKALYETELADARRALDDTARERAKLQIELGKCKAEHDQLLLNYAKKESDLNGAQIKLREYEAALNSKDAALATALGDKKSLEGDLEDLKDQIAQLEASLAAAKKQLADETLLKVDLENRCQSLTEDLEFRKSMYEEEINETRRKHETRLVEVDSGRQIEYEYKLAQALHEMREQHDAQVRLYKEELEQTYHAKLENARLSSEMNTSTVNSAREELMESRMRIESLSSQLSNLQKESRACLERIQELEDLLAKEKDNSRRMLTDKEREMAEIRDQMQQQLNDYEQLLDVKLALDMEISAYRKLLEGEEERLKLSPAPASRVTVSRASSSRSVRTTRGKRKRVDVEESEASSSVSISHSASATGNVCIEEIDVDGKFIRLKNTSEQDQPMGGWEMIRKIGDTSVSYKYTSRYVLKAGQTVTIWAANAGVTASPPTDLIWKNQNSWGTGEDVKVILKNSQGEEVAQRSTVFKTTIPEEEEEEEEAAGVVVEEELFHQQGTPRASNRSCAIM [S393A;S395A] | decreasing interaction strength
2 | MATATPVPPRMGSRAGGPTTPLSPTRLSRLQEKEELRELNDRLAVYIDKVRSLETENSALQLQVTEREEVRGRELTGLKALYETELADARRALDDTARERAKLQIELGKCKAEHDQLLLNYAKKESDLNGAQIKLREYEAALNSKDAALATALGDKKSLEGDLEDLKDQIAQLEASLAAAKKQLADETLLKVDLENRCQSLTEDLEFRKSMYEEEINETRRKHETRLVEVDSGRQIEYEYKLAQALHEMREQHDAQVRLYKEELEQTYHAKLENARLSSEMNTSTVNSAREELMESRMRIESLSSQLSNLQKESRACLERIQELEDLLAKEKDNSRRMLTDKEREMAEIRDQMQQQLNDYEQLLDVKLALDMEISAYRKLLEGEEERLKLSPSPSSRATVSRASSSRSVRTTRGKRKRVDVEESEASSSVSISHSASATGNVCIEEIDVDGKFIRLKNTSEQDQPMGGWEMIRKIGDTSVSYKYTSRYVLKAGQTVTIWAANAGVTASPPTDLIWKNQNSWGTGEDVKVILKNSQGEEVAQRSTVFKTTIPEEEEEEEEAAGVVVEEELFHQQGTPRASNRSCAIM [V398A] | decreasing interaction strength
3 | MATATPVPPRMGSRAGGPTTPLSPTRLSRLQEKEELRELNDRLAVYIDKVRSLETENSALQLQVTEREEVRGRELTGLKALYETELADARRALDDTARERAKLQIELGKCKAEHDQLLLNYAKKESDLNGAQIKLREYEAALNSKDAALATALGDKKSLEGDLEDLKDQIAQLEASLAAAKKQLADETLLKVDLENRCQSLTEDLEFRKSMYEEEINETRRKHETRLVEVDSGRQIEYEYKLAQALHEMREQHDAQVRLYKEELEQTYHAKLENARLSSEMNTSTVNSAREELMESRMRIESLSSQLSNLQKESRACLERIQELEDLLAKEKDNSRRMLTDKEREMAEIRDQMQQQLNDYEQLLDVKLALDMEISAYRKLLEGEEERLKLSPSPAARVTVSRASSSRSVRTTRGKRKRVDVEESEASSSVSISHSASATGNVCIEEIDVDGKFIRLKNTSEQDQPMGGWEMIRKIGDTSVSYKYTSRYVLKAGQTVTIWAANAGVTASPPTDLIWKNQNSWGTGEDVKVILKNSQGEEVAQRSTVFKTTIPEEEEEEEEAAGVVVEEELFHQQGTPRASNRSCAIM [S395A;S396A] | decreasing interaction strength
4 | MATATPVPPRMGSRAGGPTTPLSPTRLSRLQEKEELRELNDRLAVYIDKVRSLETENSALQLQVTEREEVRGRELTGLKALYETELADARRALDDTARERAKLQIELGKCKAEHDQLLLNYAKKESDLNGAQIKLREYEAALNSKDAALATALGDKKSLEGDLEDLKDQIAQLEASLAAAKKQLADETLLKVDLENRCQSLTEDLEFRKSMYEEEINETRRKHETRLVEVDSGRQIEYEYKLAQALHEMREQHDAQVRLYKEELEQTYHAKLENARLSSEMNTSTVNSAREELMESRMRIESLSSQLSNLQKESRACLERIQELEDLLAKEKDNSRRMLTDKEREMAEIRDQMQQQLNDYEQLLDVKLALDMEISAYRKLLEGEEERLKLSPSPSAAVTVSRASSSRSVRTTRGKRKRVDVEESEASSSVSISHSASATGNVCIEEIDVDGKFIRLKNTSEQDQPMGGWEMIRKIGDTSVSYKYTSRYVLKAGQTVTIWAANAGVTASPPTDLIWKNQNSWGTGEDVKVILKNSQGEEVAQRSTVFKTTIPEEEEEEEEAAGVVVEEELFHQQGTPRASNRSCAIM [S396A;R397A] | decreasing interaction strength
5 | MATATPVPPRMGSRAGGPTTPLSPTRLSRLQEKEELRELNDRLAVYIDKVRSLETENSALQLQVTEREEVRGRELTGLKALYETELADARRALDDTARERAKLQIELGKCKAEHDQLLLNYAKKESDLNGAQIKLREYEAALNSKDAALATALGDKKSLEGDLEDLKDQIAQLEASLAAAKKQLADETLLKVDLENRCQSLTEDLEFRKSMYEEEINETRRKHETRLVEVDSGRQIEYEYKLAQALHEMREQHDAQVRLYKEELEQTYHAKLENARLSSEMNTSTVNSAREELMESRMRIESLSSQLSNLQKESRACLERIQELEDLLAKEKDNSRRMLTDKEREMAEIRDQMQQQLNDYEQLLDVKLALDMEISAYRKLLEGEEERLKLSPAPAAAATVSRASSSRSVRTTRGKRKRVDVEESEASSSVSISHSASATGNVCIEEIDVDGKFIRLKNTSEQDQPMGGWEMIRKIGDTSVSYKYTSRYVLKAGQTVTIWAANAGVTASPPTDLIWKNQNSWGTGEDVKVILKNSQGEEVAQRSTVFKTTIPEEEEEEEEAAGVVVEEELFHQQGTPRASNRSCAIM [S393A;S395A;S396A;R397A;V398A] | disrupting interaction strength
6 | MATATPVPPRMGSRAGGPTTPLSPTRLSRLQEKEELRELNDRLAVYIDKVRSLETENSALQLQVTEREEVRGRELTGLKALYETELADARRALDDTARERAKLQIELGKCKAEHDQLLLNYAKKESDLNGAQIKLREYEAALNSKDAALATALGDKKSLEGDLEDLKDQIAQLEASLAAAKKQLADETLLKVDLENRCQSLTEDLEFRKSMYEEEINETRRKHETRLVEVDSGRQIEYEYKLAQALHEMREQHDAQVRLYKEELEQTYHAKLENARLSSEMNTSTVNSAREELMESRMRIESLSSQLSNLQKESRACLERIQELEDLLAKEKDNSRRMLTDKEREMAEIRDQMQQQLNDYEQLLDVKLALDMEISAYRKLLEGEEERLKLSPAPAAAVTVSRASSSRSVRTTRGKRKRVDVEESEASSSVSISHSASATGNVCIEEIDVDGKFIRLKNTSEQDQPMGGWEMIRKIGDTSVSYKYTSRYVLKAGQTVTIWAANAGVTASPPTDLIWKNQNSWGTGEDVKVILKNSQGEEVAQRSTVFKTTIPEEEEEEEEAAGVVVEEELFHQQGTPRASNRSCAIM [S393A;S395A;S396A;R397A] | decreasing interaction strength
